Among the data in US20100129373A1 are OD490 values, retold here.

Test [1] has as its target recombinant mouse VEGF (493-MV, R&D systems, USA) (mouse) (UniProt Q00731). Kind of test: ELISA, Ab 50 nM. Background: ELISA stands for enzyme-linked immunosorbent assay.
Test [2] has the same target. The test is described as follows: ELISA, Ab 6.25 nM.
Test [3] has the same target. Kind of test: ELISA, Ab 0.20 nM.
The target is the same in test [4]. The test is described as follows: ELISA, Ab 0.78 nM.
Test [5] has the same target. Kind of test: ELISA, Ab 3.13 nM.
Test [6] has the same target. Kind of test: ELISA, Ab 0.39 nM.
The target is the same in test [7]. The test is described as follows: ELISA, Ab 25 nM.
Test [8] shares this target. Kind of test: ELISA, Ab 1.56 nM.
The target is the same in test [9]. The test is described as follows: ELISA, Ab 12.5 nM.
For test [10] the target is unchanged. The test is described as follows: ELISA, Ab 0.049 nM.
Test [11] has the same target. The test is described as follows: ELISA, Ab 0.10 nM.
For test [12], the target named is T1, recombinant mouse VEGF (493-MV, R&D systems, USA) (mouse) (UniProt Q00731).
T1 sequence (looked up): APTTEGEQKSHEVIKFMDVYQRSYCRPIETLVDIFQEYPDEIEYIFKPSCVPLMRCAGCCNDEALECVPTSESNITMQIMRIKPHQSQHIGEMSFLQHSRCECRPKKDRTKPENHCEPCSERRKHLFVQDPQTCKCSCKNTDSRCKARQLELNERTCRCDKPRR
Kind of test: ELISA, control IgG 50 nM.

The target in test [13] is recombinant human VEGF (293-VE, R&D systems, USA) (human) (UniProt P15692). The test is described as follows: ELISA, control IgG 50 nM.

“Avastin™ (bevacizumab, Genetech), humanized anti-VEGF monoclonal antibody”: the OD490 came to 0.695 in test [1]; 0.0424 in test [2]; 0.0433 in test [3]; 0.0438 in [4]; 0.0489 in test [5]; 0.0569 in test [6]. The OD490 in [7] turned out to be 0.107; in test [8], 0.0455; in test [9] it was 0.104; in test [10] it was 0.0687; in test [11], 0.147.
Regarding normal human IgG (antibody), the OD490 in test [12] was found to be 0.0467; in test [13], 0.052.
